Laboratory results published in US20250269045A1 (PHARMAESSENTIA, published 2025).
Values belong to the binder of their own block, whether it stands above or below them.

How the values were obtained:
[1] = target: T1, granulocyte colony-stimulating factor receptor (G-CSFR) (human, UniProt Q99062 25-621, limits assumed); assay: SPR (Biacore CM5), G-CSFR immobilised, analyte in flow, 1:1 kinetic fit
T1 construct: also called GCSF receptor; G-CSF receptor
T1 sequence (looked up): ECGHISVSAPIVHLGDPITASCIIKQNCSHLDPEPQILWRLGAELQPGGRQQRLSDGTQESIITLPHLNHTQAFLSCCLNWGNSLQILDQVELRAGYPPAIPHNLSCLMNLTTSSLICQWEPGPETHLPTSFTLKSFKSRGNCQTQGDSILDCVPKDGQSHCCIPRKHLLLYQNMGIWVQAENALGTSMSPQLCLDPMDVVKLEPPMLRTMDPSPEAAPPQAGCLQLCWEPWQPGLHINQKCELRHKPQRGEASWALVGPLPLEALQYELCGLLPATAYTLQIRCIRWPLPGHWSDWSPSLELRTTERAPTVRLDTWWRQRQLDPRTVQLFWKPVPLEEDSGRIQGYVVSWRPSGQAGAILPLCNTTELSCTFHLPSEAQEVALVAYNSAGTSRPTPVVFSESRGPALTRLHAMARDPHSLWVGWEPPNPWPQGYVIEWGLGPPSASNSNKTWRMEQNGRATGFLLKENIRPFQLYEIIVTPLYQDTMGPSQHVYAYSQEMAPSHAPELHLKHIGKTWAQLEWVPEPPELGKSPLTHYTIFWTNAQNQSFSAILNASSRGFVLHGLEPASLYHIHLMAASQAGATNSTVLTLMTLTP
Protocol: (§1) In this example, G-CSFR (GCSF receptors) were immobilized onto the Sensor Chip CM5 (Biacore, trademarked) as the ligand. In each testing samples, Filgrastim RS (reference standard), MetHuG-CSF, and mPEG-MetHuG-CSF, as the analyte, were flowed through the ligand on CM5 chip respectively. The titration range of test sample analytes used in the assay was 40.5, 20.2, […], 10.1, 5.1, 2.5, 1.3 and 0.6 nM. Formulation buffers of testing samples were also tested as negative controls. The binding between the ligand and the analyte was monitored through SPR sensorgram. As slow-on and slow-off sensorgrams were observed, the kinetics fit model (“1:1 binding”) was used to obtain association constant (ka) and dissociation constant (kd), and KD was calculated by kd/ka.

[2] = target: T1, granulocyte colony-stimulating factor …; assay: SPR (Biacore CM5), G-CSFR immobilised; KD divided by KD of Filgrastim RS
Protocol: as §1
(§2) In Table 6 below, KD values of three testing samples towards G-CSFR were determined by SPR and summarized in the unit of molar concentration (M). For the KD ratio, the KD value of each testing sample was normalized with KD of Filgrastim RS.

[3] = target: T1, granulocyte colony-stimulating factor …; assay: SPR (Biacore CM5), G-CSFR immobilised, analyte in flow, 1:1 kinetic fit, KD = kd/ka
Protocol: as §1

[4] = target: T1, granulocyte colony-stimulating factor …; assay: SPR (Biacore CM5), G-CSFR immobilised; this sample is the reference itself
Protocol: as §1, §2

koff [1]: 0.000401 s⁻¹
kon [1]: 408000 M⁻¹ s⁻¹
KD ratio (normalised to Filgrastim RS) [2]: 1.65
Kd [3]: 0.982 nM
B1: mPEG-MetHuG-CSF (ligand)
chain: MTPLGPASSLPQSFLLKCLEQVRKIQGDGAALQEKLCATYKLCHPEELVLLGHSLGIPWAPLSSCPSQALQLAGCLSQLHSGLFLYQGLLQALEGISPELGPTLDTLQLDVADFATTIWQQMEELGMAPALQPTQGAMPAFASAFQRRAGGVLVASHLQSFLEVSYRVLRHLAQP
modifications: branched mPEG (two arms, each about 19-23 KDa; 40K-mPEG-aldehyde) covalently attached by amine linkage to the N-terminal Met (residue 1)
notes: also called P2203

koff [1]: 0.000469 s⁻¹
kon [1]: 657000 M⁻¹ s⁻¹
KD ratio (normalised to Filgrastim RS) [2]: 1.2
Kd [3]: 0.713 nM
B2: MetHuG-CSF (ligand)
chain: B1 chain
notes: 175 aa: the 174 aa human G-CSF plus an N-terminal Met; also called MetHuG-CSF intermediate; human G-CSF with additional N-terminal Met

koff [1]: 0.000444 s⁻¹
kon [1]: 747000 M⁻¹ s⁻¹
KD ratio (normalised to Filgrastim RS) [4]: 1
Kd [3]: 0.595 nM
B3: Filgrastim Reference Standard (ligand, human, UniProt P09919-2 31-204, looked up)
chain: TPLGPASSLPQSFLLKCLEQVRKIQGDGAALQEKLCATYKLCHPEELVLLGHSLGIPWAPLSSCPSQALQLAGCLSQLHSGLFLYQGLLQALEGISPELGPTLDTLQLDVADFATTIWQQMEELGMAPALQPTQGAMPAFASAFQRRAGGVLVASHLQSFLEVSYRVLRHLAQP
notes: also called Filgrastim RS
